Data published in publication PMC6948721.

B1: fused 4-OT (fused 4-oxalocrotonate tautomerase) (Burkholderia lata) (protein)
chain: PTLEVFLPAGHDDARKAELIARLTGATVDSIGAPIESVRVLLTELPATHIGLGGRSAADGAPPSLPVIVAILIAGRTDEQKRALIAALSETSASVLDAPLQATRVMIKDIPNTDFGIGGQTARALGR
B2: unfused 4-OT (Burkholderia lata) (protein)
chain 1: PTLEVFLPAGHDDARKAELIARLTGATVDSIGAPIESVRVLLTELPATHIGLGGRSAADGAPPSL
chain 2: PVIVAILIAGRTDEQKRALIAALSETSASVLDAPLQATRVMIKDIPNTDFGIGGQTARALGR

Key:
Conditions in all cases: 10 mM Na2HPO4 pH 7.3, 22 °C
[1] = substrate: C=CC=C(O)C(=O)O; assay: UV steady-state kinetics, enol-keto tautomerization; assay type: biochemical, Burkholderia lata
[2] = substrate: CC(=CC=C(O)C(=O)O)C(=O)O; assay: as above; assay type: biochemical, Burkholderia lata
purified protein [3] = substrate: O=C(O)C(O)=Cc1ccccc1; assay: purified protein
purified protein [4] = substrate: O=C(O)C=CC=C(O)C(=O)O; assay: purified protein

Protein | Km [1] | kcat [1] | kcat/Km [1] | Km [2] | kcat [2] | kcat/Km [2] | Km (purified protein [3]) | kcat (purified protein [3]) | kcat/Km (purified protein [3]) | Km (purified protein [4]) | kcat (purified protein [4]) | kcat/Km (purified protein [4])
B1 | 1330 ± 140 µM | 170 ± 12 s⁻¹ | 130000 M⁻¹ s⁻¹ | 147 ± 9 µM | 72 ± 2 s⁻¹ | 490000 M⁻¹ s⁻¹ |  |  |  |  |  | 
B2 |  |  |  |  |  |  | 346 ± 28 µM | 19.3 ± 0.7 s⁻¹ | 56000 M⁻¹ s⁻¹ | 148 ± 18 µM | 105 ± 6 s⁻¹ | 710000 M⁻¹ s⁻¹
